Assay results from patent publication US20030236190A1 (published 2003).
Where two headings read alike, the source gives them in different places. Each block holds one binder with its values, some of them ahead of it. Positions of bridges follow the written chain, without caps; N, C: chain ends. No end group written: not given here.

Columns and labels:
[1] = target: T1, human insulin receptor (HIR) (human, UniProt P06213 28-1382, limits assumed); experiment: Kd(HIR), insulin competition
[2] = target: T2, Human insulin receptor (HIR), purified from transfected cells after solubilization with Triton X-100 (human, UniProt P06213 28-1382, limits assumed); experiment: competition with 125I-insulin for solubilised HIR, PEG precipitation; Kd calculated from the competition curve
T2 construct: Detergent-solubilised receptor

[3] = target: T2, Human insulin receptor (HIR), purified …; experiment: as above; remark: listed apart in the source
[4] = target: T3, soluble HIR ectodomain (sIR) (human, UniProt P06213-2 28-944, limits assumed); experiment: FP competition vs FITC-RP9, sIR
T3 construct: extracellular domain
Source text: Fluorescence polarization assays (FP) were used for peptide competition studies.

[5] = target: T4, soluble human insulin receptor-immunoglobulin heavy chain chimera (sIR-Fc) (human, UniProt P06213 28-956, limits assumed, Eu3+ label (LANCE) in the TR-FRET assays); experiment: FP competition vs FITC-RP9, sIR-Fc
T4 construct: extracellular domain; construct of Bass et al., 1996; also called HIR-immunoglobulin heavy chain chimera; not shown: immunoglobulin heavy chain constant domains

[6] = target: T1, human insulin receptor (HIR); experiment: RRA, 125I-insulin competition, HIR
[7] = target: T4, soluble human insulin …; experiment: TR-FRET competition vs b-RP9, sIR-Fc
Source text: Time-resolved fluorescence resonance energy transfer assays (TR-FRET) were used for peptide competition studies.
This was used to determine IC₅₀ values.

[8] = target: T4, soluble human insulin …; experiment: TR-FRET competition vs b-S175, sIR-Fc
Procedure: (§1) The TR-FRET assays were performed in a 384-well white microplate with a final volume of 30 μl.

[9] = target: insulin receptor (IR) on mouse free fat cells (mouse, UniProt P15208 28-1372); experiment: cell-based or functional assay
[10] = target: T1, human insulin receptor (HIR); experiment: 125I-insulin competition, solubilised HIR
[11] = target: human IGF-1 receptor (HIGF-1R) (human, UniProt P08069 31-1367); experiment: 125I-IGF-1 competition, solubilised HIGF-1R
[12] = target: human IGF-1R on FDCP-2 cells (human, UniProt P08069 31-1367); experiment: cell-based or functional assay
[13] = target: T2, Human insulin receptor (HIR), purified …; experiment: competition with 125I-insulin for solubilised HIR, PEG precipitation; Kd calculated from the competition curve; remark: listed apart in the source
[14] = target: T5, human insulin receptor (HIR), purified from transfected cells after solubilization with Triton X-100 (human, UniProt P06213 28-1382, limits assumed); experiment: 125I-insulin competition on HIR
T5 construct: also called WGA-purified recombinant human insulin receptor

[15] = target: T4, soluble human insulin …; experiment: TR-FRET competition vs b-S175, sIR-Fc (column as given)
Procedure: as §1

[16] = target: T1, human insulin receptor (HIR); experiment: cell-based or functional assay

insulin receptor (IR) on mouse free fat cells, sequence (P15208 28-1372): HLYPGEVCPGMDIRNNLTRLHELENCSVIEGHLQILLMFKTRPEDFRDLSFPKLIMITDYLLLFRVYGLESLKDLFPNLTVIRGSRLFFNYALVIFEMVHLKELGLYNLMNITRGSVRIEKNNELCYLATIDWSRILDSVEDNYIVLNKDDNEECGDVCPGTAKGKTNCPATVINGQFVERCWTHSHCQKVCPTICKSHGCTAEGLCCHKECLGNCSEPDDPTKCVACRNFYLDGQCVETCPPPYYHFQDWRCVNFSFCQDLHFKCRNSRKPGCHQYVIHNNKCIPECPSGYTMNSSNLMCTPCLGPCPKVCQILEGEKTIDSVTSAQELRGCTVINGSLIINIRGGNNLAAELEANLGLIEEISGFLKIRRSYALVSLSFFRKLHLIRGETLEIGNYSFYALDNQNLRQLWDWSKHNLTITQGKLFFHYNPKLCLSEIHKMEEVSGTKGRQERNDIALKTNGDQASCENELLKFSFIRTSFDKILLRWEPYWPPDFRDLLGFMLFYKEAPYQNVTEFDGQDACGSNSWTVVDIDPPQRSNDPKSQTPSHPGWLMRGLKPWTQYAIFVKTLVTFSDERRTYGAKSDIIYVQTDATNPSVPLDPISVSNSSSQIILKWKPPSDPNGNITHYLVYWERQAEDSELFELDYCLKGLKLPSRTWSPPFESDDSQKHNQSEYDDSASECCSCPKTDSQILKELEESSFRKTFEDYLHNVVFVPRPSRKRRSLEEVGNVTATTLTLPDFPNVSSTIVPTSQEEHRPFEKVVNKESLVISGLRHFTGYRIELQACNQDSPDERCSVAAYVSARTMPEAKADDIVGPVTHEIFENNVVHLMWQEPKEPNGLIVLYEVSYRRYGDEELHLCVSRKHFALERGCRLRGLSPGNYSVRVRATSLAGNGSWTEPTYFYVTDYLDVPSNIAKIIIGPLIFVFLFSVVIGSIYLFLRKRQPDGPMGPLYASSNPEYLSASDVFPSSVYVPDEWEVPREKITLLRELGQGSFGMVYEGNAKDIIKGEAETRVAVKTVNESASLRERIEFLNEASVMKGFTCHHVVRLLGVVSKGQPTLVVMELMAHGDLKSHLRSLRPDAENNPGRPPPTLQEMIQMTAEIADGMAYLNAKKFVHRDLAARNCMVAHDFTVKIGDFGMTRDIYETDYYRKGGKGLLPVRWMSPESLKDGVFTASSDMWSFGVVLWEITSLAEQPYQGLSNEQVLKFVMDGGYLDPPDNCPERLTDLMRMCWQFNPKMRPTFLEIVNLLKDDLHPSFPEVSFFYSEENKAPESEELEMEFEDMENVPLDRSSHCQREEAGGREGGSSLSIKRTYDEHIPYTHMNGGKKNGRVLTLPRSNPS

Binder: GSLDESFYDWFERQ (Synthetic truncated RP9 monomer peptide) [S394]
Kd [2]: 81 nM
Kd [3]: 81 nM

Binder: FHENFYDWFVQRVSKK (also called D117) [H2C]
IC50 [4]: 37 nM
IC50 [5]: 50 nM
IC50 [6]: 700 nM
IC50 [7]: 1630 nM
IC50 [8]: 410 nM

Binder: EEDWLQRNANFYDWFVAELX (C-terminal Lig'; copies joined C-C by chemical linker 9, also called (EE-short-S175-Lig)2-9) [S380]
IC50 [4]: 0.5 nM
IC50 [8]: 10 nM

Binder: GIISQSCPESFYDWFAGQVSDPWWCW [G33]
IGF-1 agonist (proliferation) assay, FDCP-2 cells; ED50 [12]: ~10000 nM

Binder: DYKDFYDAIDQLVRGSARAGGTRD [20E2]
IGF-1 agonist (proliferation) assay, FDCP-2 cells; ED50 [12]: > 10000 nM

B5: S371 (peptide)
peptide: GSLDESFYDWFERQLGKK
notes: Synthetic RP9 monomer peptide; also called RP9; S371 (RP9)
Kd [13]: 630 nM
Kd [3]: 630 nM

Binder: ESFYDWFERQL (Synthetic truncated RP9 monomer peptide) [S399]
Kd [2]: 91 nM
Kd [3]: 91 nM

Binder: GSLDESFYDWFERQLG (also called RP9 minus terminal lysines) [S386]
Kd [2]: 320 nM

Binder: GGTVWPGYEWLRNA [E8 (D120)]
IC50 [5]: 207 nM
IC50 [6]: 2200 nM
IC50 [15]: 755 nM

Binder: ESFYDWFERQ (Synthetic truncated RP9 monomer peptide) [S400]
Kd [2]: 630 nM
Kd [3]: 630 nM

B13: S374 (peptide)
peptide: XGSLDESFYDWFERQLGKK
chain: XGSLDESFYDWFERQLGKK
modifications: not fully specified; the two chains are joined N-terminus to N-terminus through chemical linker 17 of Table 3 (Table 7 prints an N-terminal Ald group on each chain)
notes: Synthetic RP9 homodimer (Site 1-Site 1, N-N)
Kd [13]: 180 nM

Binder: GSLDESFYDWFERQL (Synthetic truncated RP9 monomer peptide) [S395]
Kd [2]: 91 nM
Kd [3]: 91 nM

Second part, the binder after the results:

Kd [1]: 2000 nM
B1: 435 (other, not shown: large carriers; small tags and cut ends)
chain: NNNNLGIEGRISEFIEGRAQPAMAFHENFYDWFVRQVSGGSFHENFYDWFVRQVSGGSFHENFYDWFVRQVSAAAGAPVPYPDPLEPRAA
notes: MBP fusion

Kd [1]: 410 nM
B2: 436 (other, not shown: large carriers; small tags and cut ends)
chain: NNNNLGIEGRISEFIEGRAQPAMAFHENFYDWFVRQVSGGSGGSGGSFHENFYDWFVRQVSAAAGAPVPYPDPLEPRAA
notes: MBP fusion

FFC Pot. [9]: 10 nM
Kd [10]: 0.092 nM
Kd [11]: 980 nM
B3: 537 (peptide)
peptide: MADYKDDDDKGSLDESFYDWFERQLGKKGGSGGSWLDQEWAWVQCEVYGRGCPSAAAGAPVPYPDPLEPRPG
notes: recombinant dimer with tags at both ends; also called RP9-6aa-D8

IC50 [4]: 0.03 nM
IC50 [5]: 10 nM
IC50 [6]: 44 nM
IC50 [7]: 42 nM
IC50 [8]: 6 nM
B4: RP9 (peptide)
peptide: GSLDESFYDWFERQLGKK
modifications: also: biotin (b-RP9) or fluorescein (FITC-RP9) label where used, site not given here
notes: also called S371; b-RP9

IGF-1 agonist (proliferation) assay, FDCP-2 cells; ED50 [12]: ~2000 nM
Binder: WLDQERAWLWCEISGRGCLS (disulfide 11-18 (inferred)) [D815]

binding result [14]: binds
B6: S374: 17-(Ald-GSLDESFYDWFERQLGKK)2 (peptide)
peptide: XGSLDESFYDWFERQLGKK
modifications: N-terminal Ald (aldehyde from periodate oxidation of a serine); the two chains joined N-N through chemical linker 17 of Table 3
notes: also called synthetic RP9 homodimer S374

FFC Pot. [9]: 10 nM
Kd [10]: 0.08 nM
Kd [11]: 710 nM
B7: 538 (peptide)
peptide: MADYKDDDDKGSLDESFYDWFERQLGKKGGSGGSGGSGGSWLDQEWAWVQCEVYGRGCPSAAAGAPVPYPDPLEPRPG
notes: recombinant dimer with tags at both ends; also called RP9-12aa-D8

Kd [1]: 960 nM
B8: 463 (other, not shown: large carriers; small tags and cut ends)
chain: NNNNLGIEGRISEFIEGRAQPAMAFHENFYDWFVRQVSGGSFHENFYDWFVRQVSAAAGAPVPYPDPLEPRAA
notes: MBP fusion

Kd [1]: 8300 nM
B9: 437 (other, not shown: large carriers; small tags and cut ends)
chain: NNNNLGIEGRISEFIEGRAQPAMAFHENFYDWFVRQVSAAAGAPVPYPDPLEPRAA
notes: MBP fusion

Kd [1]: 39 nM
B10: 464 (other, not shown: large carriers; small tags and cut ends)
chain: NNNNLGIEGRISEFIEGRDYKDDDDKFHENFYDWFVRQVSAAGAPVPYPDPLEPRAA
notes: MBP fusion

Kinase Pot. [16]: 1400 nM
FFC Pot. [9]: 3 nM
Kd [10]: 25 nM
B11: 521 (peptide)
peptide: MADYKDDDDKGSLDESFYDWFERQLGKKGGSGGSGSLDESFYDWFERQLGKKAAAGAPVPYPDPLEPRPG
notes: recombinant dimer with tags at both ends (FLAG, E-Tag); also called RP9-6aa-RP9

Kinase Pot. [16]: 110 nM
FFC Pot. [9]: 10 nM
Kd [10]: 0.53 nM
B12: 539 (peptide)
peptide: MADYKDDDDKWLDQEWAWVQCEVYGRGCPSGGSGGSGSLDESFYDWFERQLGKKAAAGAPVPYPDPLEPRPG
notes: recombinant dimer with tags at both ends; also called D8-6aa-RP9

Kinase Pot. [16]: 1000 nM
FFC Pot. [9]: 2 nM
B14: 535 (peptide)
peptide: MADYKDDDDKGSLDESFYDWFERQLGKKGGSGGSGGSGGSGSLDESFYDWFERQLGKKAAAGAPVPYPDPLEPRPG
